According to patent US20050065327A1:

Key:
[1] = molecular target: human IL-13 (recombinant, bacterially derived, Peprotech) (human) (UniProt P35225); experiment: cell-based or functional assay
[2] = molecular target: native (naturally occurring) human IL-13 released from HDLM-2 cells (human) (UniProt P35225); experiment: cell-based or functional assay
Chain of native (naturally occurring) human IL-13 released from HDLM-2 cells (human) (P35225 other isoform, or with tags, fused parts or gaps): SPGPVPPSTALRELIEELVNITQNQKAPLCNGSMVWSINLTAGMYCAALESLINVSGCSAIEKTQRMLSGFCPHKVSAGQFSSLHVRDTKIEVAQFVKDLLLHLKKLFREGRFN

Chain of human IL-13 (recombinant, bacterially derived, Peprotech) (human) (P35225 other isoform, or with tags, fused parts or gaps): as above

Row | IC50, TF-1 cell proliferation assay [1] [nM] | IC50, eotaxin release from NHLF [1] [nM] | IC50, HDLM-2 cell proliferation assay [2] [nM] | Substance
1 | 1.02 | 0.219 | 16.7 | B-B13 (commercial anti-human IL-13 antibody, mouse IgG1, Euroclone)
2 | 0.471 | 0.623 | 10.7 | JES10-5A2 (commercial anti-human IL-13 antibody, rat IgG1, Biosource)
